This note sets out measurements from FireProtDB (doi:10.1093/protein/14.11.891).

The conditions of the data set: Salmonella typhimurium (strain LT2 / SGSC1412 / ATCC 700720), pH 7, CD, Potassium phosphate 10 mM, reversible: yes, whole UniProt chain shown.

B1: Sialidase wild type, P29768 (protein)
chain: MTVEKSVVFKAEGEHFTDQKGNTIVGSGSGGTTKYFRIPAMCTTSKGTIVVFADARHNTASDQSFIDTAAARSTDGGKTWNKKIAIYNDRVNSKLSRVMDPTCIVANIQGRETILVMVGKWNNNDKTWGAYRDKAPDTDWDLVLYKSTDDGVTFSKVETNIHDIVTKNGTISAMLGGVGSGLQLNDGKLVFPVQMVRTKNITTVLNTSFIYSTDGITWSLPSGYCEGFGSENNIIEFNASLVNNIRNSGLRRSFETKDFGKTWTEFPPMDKKVDNRNHGVQGSTITIPSGNKLVAAHSSAQNKNNDYTRSDISLYAHNLYSGEVKLIDDFYPKVGNASGAGYSCLSYRKNVDKETLYVVYEANGSIEFQDLSRHLPVIKSYN
The term Tm denotes the temperature at which the thermal transition is half complete. With B1, for the setting “25 °C, GdnHCl”, the “denaturant midpoint (higher = more stable)” value amounted to 1.33 M and the unfolding free energy was 4.24 kcal/mol. The midpoint of thermal melting (Tm) (Thermal) worked out at 57 °C.
